Measured values from publication PMC6642140, “Boosting NAD^+ with a small molecule that activates NAMPT” (Nature Communications, 2019).

Substrate: Nc1ncnc2c1ncn2[C@@H]1O[C@H](COP(=O)(O)OP(=O)(O)OP(=O)(O)O)[C@@H](O)[C@H]1O
Assay: Km from NMN production assay with varied ATP; phosphorylates His247
Format: biochemical, Homo sapiens
Conditions: Mg2+ phosphorylation at His247

B1: NAMPT (nicotinamide phosphoribosyltransferase) (Homo sapiens) (protein)
chain: MNPAAEAEFNILLATDSYKVTHYKQYPPNTSKVYSYFECREKKTENSKLRKVKYEETVFYGLQYILNKYLKGKVVTKEKIQEAKDVYKEHFQDDVFNEKGWNYILEKYDGHLPIEIKAVPEGFVIPRGNVLFTVENTDPECYWLTNWIETILVQSWYPITVATNSREQKKILAKYLLETSGNLDGLEYKLHDFGYRGVSSQETAGIGASAHLVNFKGTDTVAGLALIKKYYGTKDPVPGYSVPAAEHSTITAWGKDHEKDAFEHIVTQFSSVPVSVVSDSYDIYNACEKIWGEDLRHLIVSRSTQAPLIIRPDSGNPLDTVLKVLEILGKKFPVTENSKGYKLLPPYLRVIQGDGVDINTLQEIVEGMKQKMWSIENIAFGSGGGLLQKLTRDLLNCSFKCSYVVTNGLGINVFKDPVADPNKRSKKGRLSLHRTPAGNFVTLEEGKGDLEEYGQDLLHTVFKNGKVTKSYSFDEIRKNAQLNIELEAAHH
notes: recombinant, N-terminal His tag removed with thrombin
With B1 the Km was 1730 ± 320 µM.
